# According to article PMC12802285, “PPE64 is a mycomembrane channel protein that functions in heme iron uptake and moonlights in biofilm formation in Mycobacterium tuberculosis” (mBio, 2025):
# “And” between values parts separate entries of the source, which are not always exact repeats. Equal values may be shown once.
# Molecular target: the molecule itself
# Test: native gel or EMSA
protein,measurement,value
"PPE64 mycomembrane channel protein (recombinant, detergent-refolded) (natural protein, also called PPE64_(OPOE); PPE64DDM) MAHFSVLPPEINSLRMYLGAGSAPMLQAAAAWDGLAAELGTAASSFSSVTTGLTGQAWQGPASAAMAAAAAPYAGFLTTASAQAQLAAGQAKAVASVFEAAKAAIVPPAAVAANREAFLALIRSNWLGLNAPWIAAVESLYEEYWAADVAAMTGYHAGASQAAAQLPLPAGLQQFLNTLPNLGIGNQGNANLGGGNTGSGNIGNGNKGSSNLGGGNIGNNNIGSGNRGSDNFGAGNVGTGNIGFGNQGPIDVNLLATPGQNNVGLGNIGNNNMGFGNTGDANTGGGNTGNGNIGGGNTGNNNFGFGNTGNNNIGIGLTGNNQMGINLAGLLNSGSGNIGIGNSGTNNIGLFNSGSGNIGVFNTGANTLVPGDLNNLGVGNSGNANIGFGNAGVLNTGFGNASILNTGLGNAGELNTGFGNAGFVNTGFDNSGNVNTGNGNSGNINTGSWNAGNVNTGFGIITDSGLTNSGFGNTGTDVSGFFNTPTGPLAVDVSGFFNTASGGTVINGQTSGIGNIGVPGTLFGSVRSGLNTGLFNMGTAISGLFNLRQLLG",stoichiometry N,9 and 3
